In the supplement of paper PMC10567573 one finds protein stability index data, which are given here for 94 variants.

B1: MMP1 (parent)
chain: YTPDLPRADVDHAIEKAFQLWSNV
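Further: lentivirally expressed fusions sorted by FACS into six bins by GFP to DsRed ratio, PSI derived from sequencing read proportions per bin multiplied by bin number.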

Variants of B1 are the subject of this data set. Put plainly: protein stability index of a GFP-peptide fusion (GPS, HEK-293T) (PSI 1-6); higher = more stable. The conditions noted are these: c terminus: a fixed tail appended.
As to YTPDLPRADVDHAIEKAFQMWSNV [L20M], the protein stability index came to 1.77.

For YTPDLPRADVDHAIEKAFQIWSNV [L20I], the protein stability index came out at 2.16.

Consider YTPDLPRADVDHAIEKAFQHWSNV [L20H], for which the protein stability index was 2.38.

On to YTPDLPRADVDHAIEKAFQDWSNV [L20D], for which the protein stability index was determined as 2.96.

In the case of YTPDLPRADVDHAIEKAFQPWSNV [L20P], the protein stability index was found to be 1.88.

On to YTPDLPRADVDHAIEKAFQSWSNV [L20S], for which the protein stability index worked out at 2.29.

As to YTPDLPRADVDHAIEKAFQVWSNV [L20V], the protein stability index turned out to be 2.76.

For YTPDLPRADVDHAIEKAFQGWSNV [L20G], the protein stability index was 1.9.

Turning to YTPDLPRADVDHAIEKAFQRWSNV [L20R], the protein stability index came to 1.99.

For the variant YTPDLPRADVDHAIEKAFQEWSNV [L20E], the protein stability index came out at 3.55.

In the case of YTPDLPRADVDHAIEKAFQTWSNV [L20T], the protein stability index is 2.21.

Consider YTPDLPRADVDHAIEKAFQYWSNV [L20Y], for which the protein stability index stood at 1.78.

Consider YTPDLPRADVDHAIEKAFQFWSNV [L20F], for which the protein stability index came to 2.67.

On to YTPDLPRADVDHAIEKAFQNWSNV [L20N], for which the protein stability index was found to be 2.19.

As for YTPDLPRADVDHAIEKAFQQWSNV [L20Q], the protein stability index came to 1.59.

As for YTPDLPRADVDHAIEKAFQAWSNV [L20A], the protein stability index was 2.17.

YTPDLPRADVDHAIEKAFQKWSNV [L20K]: the protein stability index is 2.9.

YTPDLPRADVDHAIEKAFQCWSNV [L20C]: the protein stability index stood at 1.84.

As to YTPDLPRADVDHAIEKAFQWWSNV [L20W], the protein stability index was determined as 1.1.

Consider YTPDLPRADVDHAIEKAFQLRSNV [W21R], for which the protein stability index came to 3.25.

For YTPDLPRADVDHAIEKAFQLYSNV [W21Y], the protein stability index is 2.5.

Regarding YTPDLPRADVDHAIEKAFQLISNV [W21I], the protein stability index is 2.67.

For the variant YTPDLPRADVDHAIEKAFQLTSNV [W21T], the protein stability index was 3.42.

As to YTPDLPRADVDHAIEKAFQLQSNV [W21Q], the protein stability index is 2.88.

With YTPDLPRADVDHAIEKAFQLDSNV [W21D], the protein stability index was 3.88.

Consider YTPDLPRADVDHAIEKAFQLVSNV [W21V], for which the protein stability index was 3.18.

For the variant YTPDLPRADVDHAIEKAFQLCSNV [W21C], the protein stability index is 3.03.

Consider YTPDLPRADVDHAIEKAFQLFSNV [W21F], for which the protein stability index was found to be 2.13.

Take YTPDLPRADVDHAIEKAFQLHSNV [W21H]: the protein stability index is 3.42.

For YTPDLPRADVDHAIEKAFQLGSNV [W21G], the protein stability index turned out to be 3.01.

Turning to YTPDLPRADVDHAIEKAFQLESNV [W21E], the protein stability index was determined as 3.74.

As for YTPDLPRADVDHAIEKAFQLSSNV [W21S], the protein stability index turned out to be 3.25.

YTPDLPRADVDHAIEKAFQLMSNV [W21M]: the protein stability index is 3.03.

Take YTPDLPRADVDHAIEKAFQLLSNV [W21L]: the protein stability index was found to be 3.56.

In the case of YTPDLPRADVDHAIEKAFQLNSNV [W21N], the protein stability index is 3.36.

For the variant YTPDLPRADVDHAIEKAFQLASNV [W21A], the protein stability index stood at 3.05.

As to YTPDLPRADVDHAIEKAFQLPSNV [W21P], the protein stability index was determined as 3.4.

On to YTPDLPRADVDHAIEKAFQLKSNV [W21K], for which the protein stability index was determined as 3.4.

With YTPDLPRADVDHAIEKAFQLWSNM [V24M], the protein stability index turned out to be 2.29.

Consider YTPDLPRADVDHAIEKAFQLWSNI [V24I], for which the protein stability index is 1.79.

For YTPDLPRADVDHAIEKAFQLWSNT [V24T], the protein stability index amounted to 2.29.

For the variant YTPDLPRADVDHAIEKAFQLWSNP [V24P], the protein stability index turned out to be 2.43.

Consider YTPDLPRADVDHAIEKAFQLWSNR [V24R], for which the protein stability index turned out to be 1.53.

Consider YTPDLPRADVDHAIEKAFQLWSNY [V24Y], for which the protein stability index came to 2.63.

Regarding YTPDLPRADVDHAIEKAFQLWSNS [V24S], the protein stability index turned out to be 1.66.

Regarding YTPDLPRADVDHAIEKAFQLWSNN [V24N], the protein stability index came to 1.94.

Turning to YTPDLPRADVDHAIEKAFQLWSNL [V24L], the protein stability index amounted to 1.65.

As to YTPDLPRADVDHAIEKAFQLWSNE [V24E], the protein stability index is 2.16.

With YTPDLPRADVDHAIEKAFQLWSNQ [V24Q], the protein stability index stood at 2.14.

As to YTPDLPRADVDHAIEKAFQLWSNA [V24A], the protein stability index worked out at 2.06.

As for YTPDLPRADVDHAIEKAFQLWSNF [V24F], the protein stability index turned out to be 1.83.

With YTPDLPRADVDHAIEKAFQLWSNG [V24G], the protein stability index is 2.37.

Consider YTPDLPRADVDHAIEKAFQLWSNC [V24C], for which the protein stability index was 1.87.

Consider YTPDLPRADVDHAIEKAFQLWSNK [V24K], for which the protein stability index was 2.5.

With YTPDLPRADVDHAIEKAFQLWSNW [V24W], the protein stability index was 2.39.

With YTPDLPRADVDHAIEKAFQLWSND [V24D], the protein stability index worked out at 2.02.

With YTPDLPRADVDHAIEKAFQLWSNH [V24H], the protein stability index was found to be 1.71.

As to YTPDLPRADVDHAIEKAFMLWSNV [Q19M], the protein stability index stood at 1.68.

Turning to YTPDLPRADVDHAIEKAFYLWSNV [Q19Y], the protein stability index came to 1.87.

Turning to YTPDLPRADVDHAIEKAFRLWSNV [Q19R], the protein stability index is 2.15.

Turning to YTPDLPRADVDHAIEKAFLLWSNV [Q19L], the protein stability index amounted to 1.05.

Consider YTPDLPRADVDHAIEKAFPLWSNV [Q19P], for which the protein stability index worked out at 1.52.

As for YTPDLPRADVDHAIEKAFFLWSNV [Q19F], the protein stability index was 2.43.

Regarding YTPDLPRADVDHAIEKAFALWSNV [Q19A], the protein stability index was found to be 1.54.

As for YTPDLPRADVDHAIEKAFSLWSNV [Q19S], the protein stability index is 1.7.

As to YTPDLPRADVDHAIEKAFCLWSNV [Q19C], the protein stability index turned out to be 3.82.

As to YTPDLPRADVDHAIEKAFHLWSNV [Q19H], the protein stability index turned out to be 1.97.

As for YTPDLPRADVDHAIEKAFGLWSNV [Q19G], the protein stability index is 1.75.

Take YTPDLPRADVDHAIEKAFELWSNV [Q19E]: the protein stability index was found to be 1.98.

For the variant YTPDLPRADVDHAIEKAFVLWSNV [Q19V], the protein stability index worked out at 2.66.

Consider YTPDLPRADVDHAIEKAFNLWSNV [Q19N], for which the protein stability index is 2.82.

Regarding YTPDLPRADVDHAIEKAFDLWSNV [Q19D], the protein stability index was 2.5.

Take YTPDLPRADVDHAIEKAFWLWSNV [Q19W]: the protein stability index amounted to 1.96.

For YTPDLPRADVDHAIEKAFKLWSNV [Q19K], the protein stability index worked out at 1.86.

Turning to YTPDLPRADVDHAIEKAFTLWSNV [Q19T], the protein stability index was 3.63.

YTPDLPRADVDHAIEKAFILWSNV [Q19I]: the protein stability index is 2.33.

Turning to YTPDLPRADVDHAIEKAFQLWPNV [S22P], the protein stability index is 1.85.

For YTPDLPRADVDHAIEKAFQLWKNV [S22K], the protein stability index turned out to be 2.03.

On to YTPDLPRADVDHAIEKAFQLWRNV [S22R], for which the protein stability index turned out to be 1.72.

In the case of YTPDLPRADVDHAIEKAFQLWLNV [S22L], the protein stability index was determined as 2.19.

With YTPDLPRADVDHAIEKAFQLWANV [S22A], the protein stability index turned out to be 1.78.

Consider YTPDLPRADVDHAIEKAFQLWNNV [S22N], for which the protein stability index came out at 1.85.

On to YTPDLPRADVDHAIEKAFQLWTNV [S22T], for which the protein stability index turned out to be 1.59.

In the case of YTPDLPRADVDHAIEKAFQLWWNV [S22W], the protein stability index came out at 1.91.

Consider YTPDLPRADVDHAIEKAFQLWQNV [S22Q], for which the protein stability index came to 1.98.

As for YTPDLPRADVDHAIEKAFQLWYNV [S22Y], the protein stability index amounted to 1.67.

Take YTPDLPRADVDHAIEKAFQLWENV [S22E]: the protein stability index was determined as 2.75.

As to YTPDLPRADVDHAIEKAFQLWVNV [S22V], the protein stability index was 1.44.

YTPDLPRADVDHAIEKAFQLWINV [S22I]: the protein stability index is 2.04.

With YTPDLPRADVDHAIEKAFQLWMNV [S22M], the protein stability index is 1.69.

In the case of YTPDLPRADVDHAIEKAFQLWCNV [S22C], the protein stability index came out at 2.02.

YTPDLPRADVDHAIEKAFQLWDNV [S22D]: the protein stability index amounted to 2.59.

As to YTPDLPRADVDHAIEKAFQLWHNV [S22H], the protein stability index was found to be 1.43.

YTPDLPRADVDHAIEKAFQLWFNV [S22F]: the protein stability index is 1.82.
